Literature values in publication PMC9010944.

Molecular target: PDGF-BB (Homo sapiens) (UniProt P01127)
Sequence (P01127 82-190): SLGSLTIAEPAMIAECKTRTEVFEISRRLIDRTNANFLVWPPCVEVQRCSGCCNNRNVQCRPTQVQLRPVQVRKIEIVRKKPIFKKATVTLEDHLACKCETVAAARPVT

Perlecan domain III-2, sequence (P98160 924-1324): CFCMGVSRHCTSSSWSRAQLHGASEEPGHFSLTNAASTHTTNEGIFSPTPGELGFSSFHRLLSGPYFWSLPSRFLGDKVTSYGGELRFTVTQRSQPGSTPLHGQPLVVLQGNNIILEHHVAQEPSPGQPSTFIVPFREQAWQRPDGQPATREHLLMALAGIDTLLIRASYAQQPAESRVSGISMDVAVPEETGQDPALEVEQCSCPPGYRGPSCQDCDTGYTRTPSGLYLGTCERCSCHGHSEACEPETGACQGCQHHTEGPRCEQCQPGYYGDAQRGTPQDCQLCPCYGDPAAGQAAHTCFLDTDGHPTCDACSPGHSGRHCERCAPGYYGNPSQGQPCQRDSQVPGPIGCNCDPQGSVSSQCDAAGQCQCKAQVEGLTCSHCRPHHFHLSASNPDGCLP

Kd: 8 nM
Substance: Perlecan domain III-2 (from UniProt P98160)
